Results taken from US20030185836A1 (published 2003).

B2: S15 glycoprotein (15 kDa sporozoite surface protein of Cryptosporidium parvum) (other)
chain: SEETSEAAATVDLFAFTLDGGKRIEVAVPNVEDASKRDKYSLVADDKPFYTGANSGTTNGVYRLNENGDLVDKDNTVLLKDAG
modifications: glycosylated (labelled by H. pomatia lectin); glycosyl phosphatidyl inositol anchor predicted at the C-terminal glycine (residue 305 of S60)
notes: Native protein from sporozoites/oocysts, on blots after SDS-PAGE; also called 15 kDa protein band; 15 kDa protein

Tests used:
[1] = target: T1, Canavalia ensiformis lectin (Con A) (Canavalia ensiformis, UniProt P02866 30-281, limits assumed, biotin-conjugated); test: lectin Western blot of Triton X-114 fractionated sporozoite proteins
Description: Excysted oocysts or purified sporozoites were resuspended to 1×10⁹ cells/ml in ice-cold TBS (10 mM Tris, pH 8.0, 140 mM NaCl) containing a protease inhibitor mixture of 50 μM leupeptin (Sigma),.10 μM E-64 (Sigma), 1 mM phenylmethylsulfonylfluoride (Sigma). […] Lysates were then centrifuged (100,000×g for 1 h at 4° C.) and the supernatant warmed for 3 minutes to 37° C. to induce phase separation. The water phase and the membrane protein enriched detergent phase were separated by centrifugation and each phase reextracted once. The phases were adjusted to the original volume and proteins precipitated by adding 1/10 volume of ice cold 100% (w/v) trichloroacetic acid. After 30 minutes precipitates were pelleted by centrifugation and washed twice in 70% (v/v) ice-cold ethanol and once with acetone. Pellets were then air dried and redissolved in 1-D or 2-D sample buffer for electrophoretic analysis.
For lectin analysis, membranes blocked with 1% (w/v) BSA in PBS were incubated for 1 h with biotin-conjugated lectins (Sigma) in BSA/PBS and a further 3 h with 1:10,000 alkaline-phosphatase-conjugated ExtrAvidin in PBS. […] Membranes were developed in 1 M diethanolamine, pH 9.8, containing 1 mM MgCl₂, 0.5 mM 5-bromo-4-chloro-3-indolyl phosphate and 0.5 mM nitroblue tetrazolium.

[2] = target: T1, Canavalia ensiformis lectin (Con A); test: lectin blot after SDS-PAGE of sporozoite surface proteins
[3] = target: B2; test: co-fractionation: Triton X-114 phase separation, isoelectric focusing

B1: S30 (minor sporozoite protein, proteolytic degradation product of S45) (other)
chain: TGEDAEGSQDSSGTEASGSQGSEEEGSEDDGQTSAASQPTTPAQSEGATTETIEATPKEECGTSFVMWFGEGTPAATLKCGAYTIVYAPIKDQTDPAPRYISGEVTSVTFEKSDNTVKIKVNGQDFSTLSANSSSPTENGGSAGQASSR
[1]
  binding result: no binding

## B2
[2]
  binding result: no binding

B3: S45 glycoprotein (45 kDa sporozoite surface protein of Cryptosporidium parvum) (other)
chain: DVPVEGSSSSSSSSSSSSSSSSSSSSSTSTVAPANKARTGEDAEGSQDSSGTEASGSQGSEEEGSEDDGQTSAASQPTTPAQSEGATTETIEATPKEECGTSFVMWFGEGTPAATLKCGAYTIVYAPIKDQTDPAPRYISGEVTSVTFEKSDNTVKIKVNGQDFSTLSANSSSPTENGGSAGQASSR
modifications: long stretch of serine residues after DVPVEG glycosylated with single residues of alpha N-acetyl galactosamine (first serine only partially); residues 180, 186 and 188 (S60 numbering) thought to be modified lysines
notes: Native protein from sporozoites/oocysts; also called 45 kDa protein; 45 kDa band
[2]
  binding result: no binding
[3]
  binding result: binds
